From patent US20060051295A1, “Estrogen receptor interaction with a transcription factor” (priority 2002, published 2006)

Assays:
[1] = biological target: T1, ERα (Homo sapiens, UniProt P03372); test: Transrepression of IL-1β induced NF-κB responsive promoter-reporters, U-2 OS transiently transfected with ERα; type: cell-based; parameters: expressed in transfected cells; details: ER alpha transfected, IL-1 induced
T1 sequence (P03372 1-595): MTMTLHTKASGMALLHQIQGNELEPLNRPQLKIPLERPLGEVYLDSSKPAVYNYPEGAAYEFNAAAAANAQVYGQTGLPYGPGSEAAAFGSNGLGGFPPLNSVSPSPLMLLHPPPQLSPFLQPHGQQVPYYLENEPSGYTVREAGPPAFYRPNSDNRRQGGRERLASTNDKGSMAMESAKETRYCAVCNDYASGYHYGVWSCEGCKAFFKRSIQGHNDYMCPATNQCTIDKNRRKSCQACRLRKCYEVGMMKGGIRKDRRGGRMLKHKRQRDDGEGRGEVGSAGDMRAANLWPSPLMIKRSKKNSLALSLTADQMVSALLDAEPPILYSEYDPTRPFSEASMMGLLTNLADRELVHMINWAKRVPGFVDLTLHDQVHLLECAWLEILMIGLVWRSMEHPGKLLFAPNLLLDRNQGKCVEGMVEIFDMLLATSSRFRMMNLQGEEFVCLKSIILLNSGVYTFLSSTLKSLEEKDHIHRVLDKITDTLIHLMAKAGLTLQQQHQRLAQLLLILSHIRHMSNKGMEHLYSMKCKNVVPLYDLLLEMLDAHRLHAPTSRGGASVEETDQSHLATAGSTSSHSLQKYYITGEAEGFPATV
Source text: pKCRE-ERα, pKCRE-ERβ and pNGV1-GR contain the human wild-type estrogen receptor α (ERα), ERβ or GR respectively under control of the SV40 promoter. The pCMV4-c-Rel expression vector was produced by cloning of the coding region of c-Rel into the pCMV4 vector (Andersson et al., 1989). pGL3-ELAM, pGL3-VCAM and pGL3-ICAM have been constructed based on PCR using the sequences as outlined in appendix 1. The luciferase reporter plasmid 3*NF-κB-TK was constructed by inserting three repeats of the NF-κB binding site from the ICAM promoter (van de Stolpe et al.; J. Biol Chem. 269: 6185-6192. 1994) in front of the herpes simplex virus thymidine kinase (HSV-TK) promoter. The TK promoter was cloned into the Bgl II-site of pGL3-basic (Promega). The triple repeat of NF-κB binding sites was constructed by annealing the oligonucleotide primers 5′-[…]-3′ and 5′-[…]-3′ followed by PRC amplification and subcloning in the pCR™2.1 vector. The insert was excised using HindIII, blunted with Klenow DNA polymerase and ligated into the SmaI site of pGL3-tk-luc. 4xERE-TATA Luc (plasmid nr. 460) contains four repeats of an estrogen responsive element followed by a TATA box and a luciferase gene. The pSV-β-Galactosidase (pSVβ) control vector (Promega) served as a positive control vector for monitoring transfection efficiencies of mammalian cells. The SV40 early promoter and enhancer drive transcription of the LacZ gene which encodes the β-Galactosidase enzyme. The yeast 2-hybrid constructs pGAD424-ERα, pGAD424-ERαdAB and pGAD424-ERβ were constructed by cloning respectively the human ERα, the ERα without the AB domain and the human ERβ cDNA in pGAD424. pGAD424-ERα LBD was constructed by cloning the LBD of ERα, obtained by PCR, in the EcoRI and SalI sites of pGAD424 vector. pGBT9-c-Rel was constructed by cloning the c-Rel fragment, obtained by PCR on pCMV4-c-Rel in the EcoRI and BamHI sites of pGBT9. The p65/RelA cDNA was obtained by PCR on the pCMV4-p65.
For transient transfections, cells were seeded in 6-well plates (2.10^5 cells/well). After two or three days the cells were transfected with reporter, expression vectors and β-galactosidase control vector. Two different experimental settings were used. For testing transrepression of IL-1β induced promoter activity, cells were transfected with 1 μg reporter construct, 1 μg expression vector (containing either ERα, ERβ or GR), and 0.25 μg of β-galactosidase control plasmid.

[2] = biological target: T1, ERα; test: NF-κB-responsive reporters in ECV304-ERα cells, IL-1 induced; type: cell-based; parameters: expressed in transfected cells; details: ECV304-ERα cells (A)
Source text: This example describes an assay, based on the E-selectin or VCAM promoter in combination with ERα in the T24/ECV cell line. Note that for the ER/NF-κB transrepression assay the ECV304 cell line was used, which was believed to be the only endothelial cell line available that was suitable for producing stable ERα expressing clones. At a later stage ATCC reported that the ECV304 cells were no endothelial cells but, instead, were T24 bladder carcinoma cells. In order to enhance the cytokine induction and amount of repression by estrogens, multiple copies of NF-κB responsive regions of the E-Selectin and VCAM promoters were used to construct new reporters named ELAM1a, ELAM2, ELAM-HMG, VCAM1-2, VCAM2, and VCAM3 (for reporter details see appendix 1).
ECV304-ERα cells stably express ERα and endogenous c-Rel, whereas COS cells were transiently transfected with ERα, and, where indicated, c-Rel. Both cell types were co-transfected with the indicated E-selectin (ELAM) or VCAM promoter derived reporters.
Human osteosarcoma U-2 OS (HTB-96), monkey kidney COS-1 (CRL-1650) and human ECV304 (CRL-1998) cells have been obtained from ATCC (American Type Culture collection). ECV304 cells were sold by ATCC as human endothelial cells, however at a later stage ATCC informed us that this cell line was in fact the human bladder epithelial carcinoma cell line T24. Therefore, these cells are called T24/ECV in this report. ECV304/T24(-ERα), U-2 OS and COS-7 cells were grown in a 1:1 mixture of phenol red free Dulbecco's modified medium (DMEM) and Ham's F12 medium (=M505), supplemented with 10% fetal calf serum (FCS). Experiments were performed in M505+10% FCTS (fetal calf serum treated with dextran-coated charcoal to deplete serum from steroid activity).
The six NF-κB responsive reporters pHGL3-ELAM 1a, pHGL3-ELAM 2, pHGL3-ELAM HMG, pHGL3-VCAM 1-2, pHGL3-VCAM 2 and pHGL3-VCAM 3 (plasmid nr. 1921-1926 respectively) were constructed by ligating annealed primers in the Kpn I and Sac I sites of pHGL3-TATA. The primers were based on the NF-κB-RE sequences in the ELAM and the VCAM promoter (see Appendix 1). Several copies of the NF-κB-RE's were cloned in order the gain a higher absolute luciferase signal. The ELAM HMG construct contains a double repeat, while the other constructs contain three NF-κB -RE's. For primer and reporter sequences, see appendix 1.
For transient transfections, cells were seeded in 6-well plates (2.10^5 cells/well). After two or three days the cells were transfected with reporter, expression vectors and β-galactosidase control vector. Two different experimental settings were used. For testing transrepression of IL-1β induced promoter activity, cells were transfected with 1 μg reporter construct, 1 μg expression vector (containing either ERα, ERβ or GR), and 0.25 μg of β-galactosidase control plasmid. For testing transrepression in combination with c-Rel or ReLA overexpression, cells were transfected with 1 μg reporter construct, 1 μg expression vector (containing either ERα, ERβ or GR) and 0.1 or 1.0 μg expression vector containing c-Rel or RelA and 0.25 μg of β-galactosidase control vector. Equivalent amounts of DNA were obtained by adding the appropriate expression vector that lacks an insert. Transient transfection was performed using lipofectin reagent (Life Technologies). […] The transfected cells were incubated overnight with test compounds prior to cell lysis. Measurement of luciferase and P-galactosidase activity were performed using respectively the luciferase assay system (Promega) and Galacto-light plus (Tropix) according to the manufacturers' protocols and measured on the Victor 1420 multilabel counter, Wallac.

[3] = biological target: T1, ERα; test: Stably transfected ECV304/T24-ERα-ELAM-HMG and -VCAM3 clones, luciferase activity; details: stable ECV304/T24-ERα clone, IL1 induced

luciferase activity, 3*NFkB-reporter [1]: 1836839
luciferase activity, ELAM+ reporter [1]: 99757
luciferase activity, ICAM reporter [1]: 908172
luciferase activity, VCAM reporter [1]: 30296
luciferase activity, ELAM1a reporter [2]: 1818 cps
luciferase activity, ELAM2 reporter [2]: 39383 cps
luciferase activity, ELAM− reporter [2]: 160167 cps
luciferase activity, VCAM1-2 reporter [2]: 3741 cps
luciferase activity, VCAM2 reporter [2]: 19464 cps
luciferase activity, VCAM3 reporter [2]: 22767 cps
luciferase activity, VCAM reporter [2]: 3099 cps
luciferase activity, ELAM-HMG clone 2B8 [3]: 8410
luciferase activity, ELAM-HMG clone 2F4 [3]: 1566
luciferase activity, VCAM3 clone 3A10 [3]: 3907
luciferase activity, VCAM3 clone 4B6 [3]: 2122
Substance: IL-1: cytokine used to induce NF-κB responsive reporter activity
